Patent US6284729A, “Methods and reagents for regulating obesity” (Children's Medical Center Corporation, priority 1998, dated 2001)

Columns and labels:
syndecan-1 ectodomain = molecular target: T1, syndecan-1 ectodomain (Mus musculus, UniProt P18828); assay: Binding of radioactive syndecan-1 ectodomain to neuropeptides immobilized on nitrocellulose membrane (autoradiography); conditions: peptides immobilized on nitrocellulose, UV cross-linked
T1 sequence (P18828 23-255 limits assumed): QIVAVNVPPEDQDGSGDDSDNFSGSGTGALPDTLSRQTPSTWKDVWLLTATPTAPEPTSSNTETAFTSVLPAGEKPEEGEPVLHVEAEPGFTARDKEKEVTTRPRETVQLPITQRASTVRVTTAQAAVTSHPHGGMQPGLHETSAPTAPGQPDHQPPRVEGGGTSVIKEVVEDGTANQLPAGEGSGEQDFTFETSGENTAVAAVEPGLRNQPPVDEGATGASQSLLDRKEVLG
Protocol: Binding of syndecan-1 ectodomain to neuropeptides involved in body weight regulation was tested. Varying concentrations of the peptides were immobilized on a nitrocellulose membrane (for example, 1000 nmol) and fixed by UV cross-linking. The membrane was incubated with radioactive syndecan-1 ectodomain to allow binding and then washed and analyzed by autoradiography.

Mc3r = conditions: recombinant protein; cited from earlier work
Mc4r = conditions: recombinant protein; cited from earlier work
melanocortin-4 receptor = assay: MC4-R adenylyl cyclase assay (conversion of ATP to cAMP) in membranes from 293 cells transfected with the melanocortin-4 receptor, with ndp-MSH; type: biochemical; conditions: for potentiation of MC4-R inhibition by AGRP (formation of cAMP from ATP): membranes preincubated with substance plus AGRP, FIGS. 1a and 1b
Protocol: Based on the interaction of AGRP and syndecan-1, the putative interaction between agouti/AGRP and syndecaniheparan sulfate in a functional assay was tested. Membranes from 293 cells transfected with the melanocortin-4 receptor were preincubated with buffer or as indicated with AGRP, heparan sulfate, syndecan-1 ectodomain, heparan sulfate plus AGRP, and syndecan-1 ectodomain plus AGRP. Samples were then mixed with or without the indicated concentration of ndp-{character pullout}MSH and conversion of ATP to cAMP measured in the assay.

Molecule	interaction with syndecan-1 (binding of radioactive syndecan-1 ectodomain to immobilized peptide) (syndecan-1 ectodomain)	potentiation of MC4-R inhibition by AGRP (formation of cAMP from ATP) (melanocortin-4 receptor)	further results
NC(=O)CC[C@@H]1NC(=O)[C@H](Cc2ccccc2)NC(=O)[C@H](Cc2ccc(O)cc2)NC(=O)[C@@H](N)CSSC[C@@H](C(=O)N2CCC[C@H]2C(=O)N[C@@H](CCCN=C(N)N)C(=O)NCC(N)=O)NC(=O)[C@H](CC(N)=O)NC1=O [vasopressin, reference compound]	interact with syndecan-1		
AGRP: Agouti-related protein, 132 aa hypothalamic analog of agouti; inhibitor of MC3-R and MC4-R (SSRRCVRLHESCLGQQVPCCDPCATCYCRFFNAFCYCRKLGTAMNPCSRT; UniProt O00253 83-132, looked up)	interact with syndecan-1		antagonism of Mc3r (Mc3r): potent, selective antagonist; antagonism of Mc4r (Mc4r): potent, selective antagonist
FGF-2: fibroblast growth factor-2, heparin-binding growth factor	interact with syndecan-1		
heparan sulfate [reference compound]		potentiates melanocortin-4R (MC4-R) inhibition by AGRP	potency of AGRP at inhibiting MC4-R activation in presence of the substance (melanocortin-4 receptor; 1 μg/ml heparan sulfate): 10 nM AGRP is as potent as 100 nM AGRP
agouti: 131 aa paracrine signaling molecule; switches hair follicle melanocytes from black to yellow pigment (protein, UniProt Q03288 23-131, looked up) Agouti-signaling protein: HLALEETLGDDRSLRSNSSMNSLDFSSVSIVALNKKSKKISRKEAEKRKRSSKKKASMKKVARPPPPSPCVATRDSCKPPAPACCDPCASCQCRFFGSACTCRVLNPNC	interact with syndecan-1		
syndecan-1 ectodomain: soluble extracellular domain of syndecan-1, a transmembrane heparan sulfate proteoglycan (protein, UniProt P18827 23-254, looked up, extracellular domain, soluble extracellular domain of syndecan-1, a transmembrane heparan sulfate proteoglycan) extracellular domain: QIVATNLPPEDQDGSGDDSDNFSGSGAGALQDITLSQQTPSTWKDTQLLTAIPTSPEPTGLEATAASTSTLPAGEGPKEGEAVVLPEVEPGLTAREQEATPRPRETTQLPTTHLASTTTATTAQEPATSHPHRDMQPGHHETSTPAGPSQADLHTPHTEDGGPSATERAAEDGASSQLPAAEGSGEQDFTFETSGENTAVVAVEPDRRNQSPVDQGATGASQGLLDRKEVLG		potentiates melanocortin-4R (MC4-R) inhibition by AGRP	potency of AGRP at inhibiting MC4-R activation in presence of the substance (melanocortin-4 receptor; 1 ng/ml syndecan-1 ectodomain): 10 nM AGRP is as potent as 100 nM AGRP; potentiation of the action of agouti on the MC4-R (melanocortin-4 receptor; biochemical assay, agouti instead of AGRP): potentiates the action of agouti on the MC4-R; concentration dependence of potentiation of AGRP's action (melanocortin-4 receptor; low versus higher concentrations of syndecan-1 ectodomain): potentiation is less pronounced at higher concentrations
